Here are results for 28 molecules from patent US20250090676A1 (SUTRO BIOPHARMA, published 2025).

Substitutions are numbered along the chain they refer to.

The chains are these.
B1: SRP1848-E06 (antibody, V domains shown)
VH: EVQLVESGGGLVQPSGSLRLSCAASGFNINRYYIHWVRQAPGKGLEWVGGITPNDGYTDYADSVEGRFTTSADTSKNTAYLQMNSLRAEDTAVYYCARGTWSWPSGHSYYLDYWGQGTLVTVSS
VL: not shown
notes: IgG with common trastuzumab LC, cell-free expressed, HIS- and FLAG-tagged; also called Antibody 35
B2: SRP1848-D03 (antibody, V domains shown)
VH: EVQLVESGGGVVQPGGSLRLSCAASGFNIRYFSIHWVRQAPGKGLEWVGDIFPNDGSTDYADSVKGRFTISADTSKNTAYLQMNSLRAEETAVYYCARGHWSWPSGYWYYLDYWGQGTLVTVSS
VL: not shown
notes: IgG with common trastuzumab LC, cell-free expressed, HIS- and FLAG-tagged; also called Antibody 25
B3: SRP1848-D07 (antibody, V domains shown)
VH: EVQLVESGGGLVQPGGSLRLSCAASGFNISKYYIHWVRQAPGKGLEWVGGISPNDGYTDYADSVKGRFAISADTSKNTAYLQMNSLRAEDTAVYYCARGFWAWRSGYGYYLDYWGQGTLVTVSS
VL: not shown
notes: IgG with common trastuzumab LC, cell-free expressed, HIS- and FLAG-tagged; also called Antibody 28
B4: SRP1848-G01 (antibody, V domains shown)
VH: B3 VH with K31R, Y32H, Y33S, G50W, S52A, Y57S, A69T, F100S, G108S, Y110F
VL: not shown
notes: IgG with common trastuzumab LC, cell-free expressed, HIS- and FLAG-tagged; also called Antibody 47
B5: SRP1848-F10 (antibody, V domains shown)
VH: B3 VH with K31N, Y32N, Y33S, G50S, S52F, A69T, F100S, A102F
VL: not shown
notes: IgG with common trastuzumab LC, cell-free expressed, HIS- and FLAG-tagged; also called Antibody 45
B6: SRP1848-F05 (antibody, V domains shown)
VH: B3 VH with Y32S, Y33S, G50E, S52Y, Y57S, A69T, F100S, G108S, Y110F
VL: not shown
notes: IgG with common trastuzumab LC, cell-free expressed, HIS- and FLAG-tagged; also called Antibody 40
B7: SRP1848-D09 (antibody, V domains shown)
VH: B3 VH with K31N, A69T, F100S, A102S, S105H
VL: not shown
notes: IgG with common trastuzumab LC, cell-free expressed, HIS- and FLAG-tagged; also called Antibody 29
B8: SRP1848-D10 (antibody, V domains shown)
VH: B3 VH with K31R, Y32N, Y33S, G50W, Y57T, A69T, T74G, F100A, A102S, L111I
VL: not shown
notes: IgG with common trastuzumab LC, cell-free expressed, HIS- and FLAG-tagged; also called Antibody 30
B9: SRP1848-F11 (antibody, V domains shown)
VH: EVQLVESGGGLVQPGGSLRLSCAASGFNISNNYIHWVRQAPGKGLEWVGGITPIDGNTDYADSVKGRFTISADTSMNTAYLQMNSLRAEDTAVYYCARGSWYWRAGYGYYLDYWGQGALVTVSS
VL: not shown
notes: IgG with common trastuzumab LC, cell-free expressed, HIS- and FLAG-tagged; also called Antibody 46
B10: SRP1848-F01 (antibody, V domains shown)
VH: B3 VH with S30R, K31T, Y33S, G50S, S52F, Y57T, A69T, F100S, S105A, G108S
VL: not shown
notes: IgG with common trastuzumab LC, cell-free expressed, HIS- and FLAG-tagged; also called Antibody 37
B11: SRP1848-G03 (antibody, V domains shown)
VH: EVQLVESGGGLVQPGGSLRLSCAASGFNISTYYIHWVRQAPGKGLEWVGGITPSDGFTDYADSVKGRSTISADTSKNTAYLQMNSLRAEDTAVYYCARGSWSWPSGHGYFLDYWGQGTLVTVSS
VL: not shown
notes: IgG with common trastuzumab LC, cell-free expressed, HIS- and FLAG-tagged; also called Antibody 48
B12: SRP1848-F07 (antibody, V domains shown)
VH: EVQLVESGGGLVQPGGSLRLSCAASGFNISNHSIHWVRQAPGKGLEWVGEIYPNDGITDYADSVKGRFTISADTSKNTAYLQMNSLSAEDTAVYYCARGSWDWRSGYSYYLDYWGQGTLVTVSS
VL: not shown
notes: IgG with common trastuzumab LC, cell-free expressed, HIS- and FLAG-tagged; also called Antibody 42
B13: SRP1848-F02 (antibody, V domains shown)
VH: EVQLVESGGGLVQPGGSLRLSCAASGFNIRTYSIHWVRQAPGKGLEWVGSIFPNDGTTDYADSVKGRLTISADTSKNTAYLQMNSLRAEDTAVYYCARGSWSWQAGYGYYLDYWGQGTLVTVSS
VL: not shown
notes: IgG with common trastuzumab LC, cell-free expressed, HIS- and FLAG-tagged; also called Antibody 38
B14: SRP1848-H01 (antibody, V domains shown)
VH: B13 VH with Y32Q, V48I, S50D, N54I, T57I, L68F, Q104P, A105S, Y107M, G108D
VL: not shown
notes: IgG with common trastuzumab LC, cell-free expressed, HIS- and FLAG-tagged; also called Antibody 55
B15: SRP1848-E01 (antibody, V domains shown)
VH: B9 VH with S30T, N32K, I54F, N57F, M76K, Y102S, R104P, L111Q, A118T
VL: not shown
notes: IgG with common trastuzumab LC, cell-free expressed, HIS- and FLAG-tagged; also called Antibody 31
B16: SRP1848-F09 (antibody, V domains shown)
VH: B3 VH with K31N, Y32H, N54L, A69T, F100A, A102S, L111I
VL: not shown
notes: IgG with common trastuzumab LC, cell-free expressed, HIS- and FLAG-tagged; also called Antibody 44
B17: SRP1848-F06 (antibody, V domains shown)
VH: B3 VH with K31L, Y32S, N54I, Y57N, A69T
VL: not shown
notes: IgG with common trastuzumab LC, cell-free expressed, HIS- and FLAG-tagged; also called Antibody 41
B18: SRP1848-E07 (antibody, V domains shown)
VH: EVQLVESGGGLVQPGGSLRLSCAASGFNIRKSSIHWVRQAPGKGLEWVGEIFPYDGSTDYADNVKGRFTISADTSKNTAYLQMNSLRAEDTAVYYCARGAWSWRSGYGYYIDYWGQGTLVTVSS
VL: not shown
notes: IgG with common trastuzumab LC, cell-free expressed, HIS- and FLAG-tagged; also called Antibody 36
B19: SRP1848-F08 (antibody, V domains shown)
VH: B12 VH with S25G, L45V, N54V, Q82R, S87R, D102Y, R104Q
VL: not shown
notes: IgG with common trastuzumab LC, cell-free expressed, HIS- and FLAG-tagged; also called Antibody 43
B20: SRP1848-E05 (antibody, V domains shown)
VH: B3 VH with L20V, S30G, K31V, S52T, A69T
VL: not shown
notes: IgG with common trastuzumab LC, cell-free expressed, HIS- and FLAG-tagged; also called Antibody 34
B21: SRP1848-E02 (antibody, V domains shown)
VH: B12 VH with S30G, N31K, H32Y, I57N, S87R, D102S, S108G
VL: not shown
notes: IgG with common trastuzumab LC, cell-free expressed, HIS- and FLAG-tagged; also called Antibody 32
B22: SRP1848-E03 (antibody, V domains shown)
VH: B11 VH with V12A, S30G, T31N, S54R, S68F, M83V, S105A, G108S, F110Y
VL: not shown
notes: IgG with common trastuzumab LC, cell-free expressed, HIS- and FLAG-tagged; also called Antibody 33
B23: SRP1848-G04 (antibody, V domains shown)
VH: EVQLVESGGGLVQPGGSLRLSCAASGFNIHSTDIHWVRQAPGKGLEWVAYITPAGGATFYADSVKGRFTISADTSKNTAYLQMNSLRAEDTAVYYCARYPYWFAGYMDYWGQGTLVTVSS
VL: not shown
notes: IgG with common trastuzumab LC, cell-free expressed, HIS- and FLAG-tagged; also called Antibody 49
B24: SRP1848-G06 (antibody, V domains shown)
VH: B23 VH with H30R, F59Y, S63N, Y99Q
VL: not shown
notes: IgG with common trastuzumab LC, cell-free expressed, HIS- and FLAG-tagged; also called Antibody 50
B25: SRP1848-G11 (antibody, V domains shown)
VH: B23 VH with H30S, F59W, A104S
VL: not shown
notes: IgG with common trastuzumab LC, cell-free expressed, HIS- and FLAG-tagged; also called Antibody 54
B26: SRP1848-G07 (antibody, V domains shown)
VH: B23 VH with F59W, Y101F
VL: not shown
notes: IgG with common trastuzumab LC, cell-free expressed, HIS- and FLAG-tagged; also called Antibody 51
B27: SRP1848-G09 (antibody, V domains shown)
VH: B23 VH with H30R, S31G, Y99H, P100E, A104S
VL: not shown
notes: IgG with common trastuzumab LC, cell-free expressed, HIS- and FLAG-tagged; also called Antibody 52
B28: SRP1848-G10 (antibody, V domains shown)
VH: B23 VH with G16S, H30R, F59Y, M107I
VL: not shown
notes: IgG with common trastuzumab LC, cell-free expressed, HIS- and FLAG-tagged; also called Antibody 53

The target of this experiment is T1, human FOLR1-HIS (human, UniProt P15328 25-233).
T1 construct: Analyte of the Biacore assay; also called FolRα-ECD; extracellular domain of FOLR1; not shown: HIS tag
T1 sequence (P15328 25-233 limits assumed): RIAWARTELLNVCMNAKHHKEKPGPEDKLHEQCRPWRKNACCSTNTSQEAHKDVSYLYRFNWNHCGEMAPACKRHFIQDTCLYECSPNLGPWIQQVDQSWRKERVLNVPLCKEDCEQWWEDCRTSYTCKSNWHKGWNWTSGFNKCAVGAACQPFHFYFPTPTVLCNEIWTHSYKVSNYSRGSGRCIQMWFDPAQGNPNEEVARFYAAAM
Kind of experiment: SPR (Biacore), antibody captured on anti-Fc, human FOLR1-HIS analyte, 25 C. (In general: Surface plasmon resonance follows binding to a sensor surface in real time, without labels.)
Turning to B1, the Kd was 1.63 nM.

As for B2, binding was put at a Kd of 5.19 nM.

As for B3, the Kd came out at 4.7 nM, the koff was determined as 0.00511 s⁻¹ and the kon turned out to be 1.09e+06 M⁻¹ s⁻¹.

As to B4, the Kd was determined as 5.09 nM, the koff worked out at 0.00226 s⁻¹ and the kon stood at 444000 M⁻¹ s⁻¹.

For B5, binding was characterised by a dissociation constant (Kd) of 2.83 nM, the koff stood at 0.00247 s⁻¹ and the kon was determined as 872000 M⁻¹ s⁻¹.

The molecule B6 came in with a Kd of 2.4 nM, a koff of 0.00157 s⁻¹ and a kon of 656000 M⁻¹ s⁻¹.

Consider B7, for which binding was characterised by a dissociation constant (Kd) of 10.1 nM, the koff came to 0.0108 s⁻¹ and the kon was 1.07e+06 M⁻¹ s⁻¹.

Turning to B8, the Kd was found to be 4.95 nM, the dissociation rate constant (koff) stood at 0.00558 s⁻¹ and the kon worked out at 1.13e+06 M⁻¹ s⁻¹.

B9 showed a dissociation constant Kd of 4.71 nM, a koff of 0.0039 s⁻¹ and a kon of 828000 M⁻¹ s⁻¹.

In turn, B10 displayed a Kd of 3.18 nM, a koff of 0.00362 s⁻¹ and a kon of 1.14e+06 M⁻¹ s⁻¹.

B11 gave a Kd of 1.99 nM, a koff of 0.00197 s⁻¹ and a kon of 990000 M⁻¹ s⁻¹.

As to B12, binding was characterised by a dissociation constant (Kd) of 1.56 nM, the koff came out at 0.00249 s⁻¹ and the kon amounted to 1.6e+06 M⁻¹ s⁻¹.

Regarding B13, the Kd was 4.49 nM, the dissociation rate constant (koff) was 0.00637 s⁻¹ and the kon was 1.42e+06 M⁻¹ s⁻¹.

B14: binding was characterised by a dissociation constant (Kd) of 2.11 nM. In other words, the single-digit nanomolar range.

The molecule B15 came in with an equilibrium dissociation constant (Kd) of 7.87 nM, a koff of 0.00522 s⁻¹ and a kon of 664000 M⁻¹ s⁻¹.

As for B16, the Kd came to 4.85 nM, the koff is 0.00679 s⁻¹ and the kon was determined as 1.4e+06 M⁻¹ s⁻¹.

B17: the equilibrium dissociation constant (Kd) came out at 17 nM, the off-rate (koff) is 0.00775 s⁻¹ and the kon is 456000 M⁻¹ s⁻¹.

On to B18, for which the affinity, expressed as Kd, was 1.91 nM; the off-rate (koff) was determined as 0.0024 s⁻¹; the kon worked out at 1.25e+06 M⁻¹ s⁻¹.

With B19, the Kd stood at 4.58 nM, the dissociation rate constant (koff) came out at 0.00272 s⁻¹ and the kon is 594000 M⁻¹ s⁻¹.

B20 showed an equilibrium dissociation constant (Kd) of 3.51 nM, a koff of 0.00251 s⁻¹ and a kon of 716000 M⁻¹ s⁻¹.

Regarding B21, the dissociation constant Kd is 6.21 nM, the dissociation rate constant (koff) is 0.00707 s⁻¹ and the kon was 1.14e+06 M⁻¹ s⁻¹.

B22 gave a dissociation constant (Kd) of 2.67 nM, a koff of 0.00183 s⁻¹ and a kon of 688000 M⁻¹ s⁻¹.

For B23, the Kd stood at 6.4 nM, the koff came out at 0.00379 s⁻¹ and the kon was found to be 591000 M⁻¹ s⁻¹.

Turning to B24, the Kd was 6.7 nM, the koff turned out to be 0.00381 s⁻¹ and the kon turned out to be 569000 M⁻¹ s⁻¹.

Molecule B25 showed a Kd of 9.14 nM, a koff of 0.00637 s⁻¹ and a kon of 696000 M⁻¹ s⁻¹.

B26 yielded a Kd of 7.45 nM, a koff of 0.00451 s⁻¹ and an on-rate constant (kon) of 605000 M⁻¹ s⁻¹.

As for B27, binding was characterised by a dissociation constant (Kd) of 7.56 nM, the koff amounted to 0.00646 s⁻¹ and the on-rate constant (kon) amounted to 856000 M⁻¹ s⁻¹.

In turn, B28 came in with a Kd of 4.55 nM, an off-rate constant (koff) of 0.00345 s⁻¹ and a kon of 758000 M⁻¹ s⁻¹.

Usually Kd stands for the equilibrium constant for the complex coming apart. Lower therefore signals a tighter complex. As a reminder, the koff is the rate constant with which the complex falls apart. A high value points to fast dissociation. For orientation: kon means the rate constant with which the complex forms.
